This is an account of results in article PMC4190070 (Nature structural & molecular biology, 2014).

The target of the experiment is T1, SA2–Scc1 cohesin subcomplex (SA2 80–1060, Scc1 281–420), purified recombinant (human, UniProt Q8N3U4;O60216).
T1 sequence 1: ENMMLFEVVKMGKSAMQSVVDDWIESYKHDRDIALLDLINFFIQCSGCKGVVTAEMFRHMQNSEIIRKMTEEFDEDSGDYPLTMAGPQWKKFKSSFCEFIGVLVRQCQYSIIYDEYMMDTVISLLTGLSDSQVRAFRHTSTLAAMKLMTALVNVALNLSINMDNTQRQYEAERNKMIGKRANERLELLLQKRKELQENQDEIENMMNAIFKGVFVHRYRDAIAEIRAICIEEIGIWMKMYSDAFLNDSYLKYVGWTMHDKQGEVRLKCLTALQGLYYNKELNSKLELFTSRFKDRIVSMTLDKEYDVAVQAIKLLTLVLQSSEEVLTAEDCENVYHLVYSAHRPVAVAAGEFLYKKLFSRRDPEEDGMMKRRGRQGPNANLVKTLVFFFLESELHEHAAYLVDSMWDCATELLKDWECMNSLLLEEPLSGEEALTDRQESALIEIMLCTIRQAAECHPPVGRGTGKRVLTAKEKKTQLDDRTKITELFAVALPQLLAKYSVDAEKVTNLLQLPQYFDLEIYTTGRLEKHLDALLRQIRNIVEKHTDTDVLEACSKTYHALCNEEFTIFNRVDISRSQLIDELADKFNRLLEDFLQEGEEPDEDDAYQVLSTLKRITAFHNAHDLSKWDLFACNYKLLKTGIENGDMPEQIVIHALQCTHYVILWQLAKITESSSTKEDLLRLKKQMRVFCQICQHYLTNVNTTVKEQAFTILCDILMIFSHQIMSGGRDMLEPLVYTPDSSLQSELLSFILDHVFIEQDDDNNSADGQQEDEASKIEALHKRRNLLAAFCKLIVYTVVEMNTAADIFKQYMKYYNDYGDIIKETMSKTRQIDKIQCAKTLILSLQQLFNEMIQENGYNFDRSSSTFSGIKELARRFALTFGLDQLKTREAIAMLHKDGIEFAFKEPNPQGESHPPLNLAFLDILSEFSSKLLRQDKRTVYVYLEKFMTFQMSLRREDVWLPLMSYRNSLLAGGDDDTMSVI
T1 sequence 2: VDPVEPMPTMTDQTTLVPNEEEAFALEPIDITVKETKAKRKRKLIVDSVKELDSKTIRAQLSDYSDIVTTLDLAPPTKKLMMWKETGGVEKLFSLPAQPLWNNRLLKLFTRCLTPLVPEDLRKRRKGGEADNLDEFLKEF
As to the kind of experiment: ITC.

With KSENKKTVPQKKMHKSVSSNDAYNFNLEEGVHLTPFRQKVSC [unphosphorylated Sgo1 peptide (residues 313–353)], the Kd amounted to 618 nM and the “stoichiometry N” value was 1.

As a reminder, the Kd is the constant that tells how readily two partners part at equilibrium. Broadly, the stoichiometry N is the number of molecules, sites or subunits per partner or assembly.
